Square brackets hold non-standard residues; d marks the D form. Ends that are not written are not given here. pY = N[C@@H](Cc1ccc(OP(=O)(O)O)cc1)C(=O)O; Ahx = NCCCCCC(=O)O
How the values were obtained:
[1] = biological target: PLCγ-1 C SH2 domain, 663-759 (UniProt P19174); experiment: immobilised peptide pull-down, anti-GST blot; settings: reference: unphosphorylated Y4507 peptide; sites Y4507
[2] = biological target: PLCγ-1 N SH2 domain, 544-659 (UniProt P19174); experiment: immobilised peptide pull-down, anti-GST blot; settings: reference: unphosphorylated Y4507 peptide; sites Y4507
Grb2 SH2 domain, 58-159 = Grb2 SH2 domain, 58-159 (UniProt P62993); experiment: immobilised peptide pull-down, anti-GST blot; settings: reference: unphosphorylated Y4507 peptide; sites Y4507
CSK, His tagged = CSK, His tagged (UniProt P41240); experiment: immobilised peptide pull-down, anti-CSK blot; settings: reference: unphosphorylated Y4507 peptide; sites Y4507
[3] = biological target: Shp-2 (Shp2) SH2(C) domain (UniProt Q06124); experiment: immobilised peptide pull-down, anti-ubiquitin tag blot; settings: reference: unphosphorylated Y4507 peptide; sites Y4507
[4] = biological target: Shp-2 (Shp2) SH2(N) domain (UniProt Q06124); experiment: as above; settings: reference: unphosphorylated Y4507 peptide; sites Y4507
[5] = biological target: T1, GST tagged C SH2 domain of PLCγ-1 (663–759) (human, UniProt P19174 663-759); experiment: pull-down
T1 sequence (looked up): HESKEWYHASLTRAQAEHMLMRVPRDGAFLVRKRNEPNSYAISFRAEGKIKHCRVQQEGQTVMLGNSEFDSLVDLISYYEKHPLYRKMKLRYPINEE

[6] = biological target: GST tagged SH2 domain of Grb2 (58–159) (human, UniProt P62993 58-159); experiment: pull-down
[7] = biological target: T2, GST tagged N SH2 domain of PLCγ-1 (544–659) (human, UniProt P19174 544-659); experiment: pull-down
T2 sequence (looked up): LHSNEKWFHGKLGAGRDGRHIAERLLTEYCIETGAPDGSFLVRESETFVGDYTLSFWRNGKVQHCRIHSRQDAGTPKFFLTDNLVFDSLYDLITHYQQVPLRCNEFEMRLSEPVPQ

## LDL receptor-related protein 1 (LRP1) NPXY4507 microdomain (from UniProt Q07954) pY4507 peptide
[1]
  binding against the reference: stronger
[2]
  binding against the reference: stronger
Grb2 SH2 domain, 58-159
  binding against the reference: stronger
CSK, His tagged
  binding against the reference: stronger
[3]
  binding against the reference: stronger
[4]
  binding against the reference: stronger

B1: NPXpY_(4507) microdomain of LRP1-CT, tyrosine-phosphorylated (peptide)
peptide: C[Ahx]TNFTNPV[pY]ATLY
[5]
  binding result: binds
[6]
  binding result: binds
[7]
  binding result: binds

Reference: paper PMC2862490 (Proteomics, 2009)
